Where a chain is given by its changes, count along the chain named.
Experiments:
[1] = system: T1, RRAPGKLTCLASYAWLCWTGIA-COOH
T1 sequence: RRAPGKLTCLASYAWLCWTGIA

[2] = system: T2, RAAPGKLQCLASYCWLFWTGIA
T2 sequence: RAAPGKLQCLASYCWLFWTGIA

[3] = system: T3, compound 4
T3 sequence: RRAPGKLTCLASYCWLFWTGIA

[4] = system: T4, SKAGRPISPDrRAAGKLTCLASYCWLFWTGIA
T4 sequence: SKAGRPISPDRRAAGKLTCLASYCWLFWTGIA

[5] = system: T5, RRAPGKLTCLASYCWLFwTGIA
T5 sequence: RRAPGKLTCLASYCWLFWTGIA

[6] = system: T6, PRIRTVGPGSRSASGKLSCLASYCWLFWTGIA
T6 sequence: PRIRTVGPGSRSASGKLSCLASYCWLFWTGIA

[7] = system: T7, RPRSSAHDRP RRAAG KLTCLASYCWLFWTGIA
T7 sequence: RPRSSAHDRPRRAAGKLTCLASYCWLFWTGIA

[8] = system: T8, Pra-PEG4-PRIrTVGPGSrSASGKSTCLASYCWLFWTGIA
T8 sequence: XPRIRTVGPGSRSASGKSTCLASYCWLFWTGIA

[9] = system: T9, KLTCRASYCQLF
T9 sequence: KLTCRASYCQLF

[10] = system: T10, RRAPGKLTCLASYCWLF EPGIA QPYAKSPTRN
T10 sequence: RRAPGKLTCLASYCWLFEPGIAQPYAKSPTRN

[11] = system: T11, KLTCKASYCWLF
T11 sequence: KLTCKASYCWLF

[12] = system: T12, C(N-PEG5kmaleimide)-PEG4-LVPR-PEG4-rRAPGKLTCLASYCWLFWTGIA
T12 sequence: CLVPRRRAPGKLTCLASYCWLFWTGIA

[13] = system: T13, RRAPGKLQCLASYCWLFW
T13 sequence: RRAPGKLQCLASYCWLFW

[14] = system: T14, KLT-Dap-LASY-Glu-WLF
T14 sequence: KLTXLASYEWLF

[15] = system: T15, RRAPGKLTCLA-MeSer-YCWLFWTGIA
T15 sequence: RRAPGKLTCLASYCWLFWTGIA

[16] = system: T16, LTCLASYCWLF
T16 sequence: LTCLASYCWLF

[17] = system: T17, RRAPGKLTCLASYCWLF WTGLL DYPTPQSHEP
T17 sequence: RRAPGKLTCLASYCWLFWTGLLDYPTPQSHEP

[18] = system: T18, LQLSYGEQRQ SRAPG KLTCLASYCWLFWTGIA
T18 sequence: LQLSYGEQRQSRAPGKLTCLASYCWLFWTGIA

[19] = system: T19, PARGKERELM RRAPG KLTCLASYCWLFWTGIA
T19 sequence: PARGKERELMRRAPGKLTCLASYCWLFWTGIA

[20] = system: T20, RRAPGKLQCLASYCWLFWTGFA
T20 sequence: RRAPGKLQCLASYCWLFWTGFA

[21] = system: T21, rRAPGKLTCLASYCWLSWTGIA
T21 sequence: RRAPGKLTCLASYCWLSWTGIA

[22] = system: T22, CGGGLVPRGGG-RRAPGKLT-Asp-LASY-Lys-WLFWTGIA
T22 sequence: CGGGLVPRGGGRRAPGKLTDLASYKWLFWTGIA

[23] = system: T23, ALTCLAAYCALF
T23 sequence: ALTCLAAYCALF

[24] = system: T24, PRIRTVGPGSRSASGKLTCSASYCWLFWTGIA
T24 sequence: T6 sequence with S18T, L20S

[25] = system: T25, compound 1
T25 sequence: KLTCLASYCWLF

[26] = system: T26, KLTCLASYCWLF-COOH
T26 sequence: KLTCLASYCWLF

[27] = system: T27, compound 24
T27 sequence: T4 sequence with A3Q

[28] = system: T28, PRIRTVGPGSRSASGKLTCLASYCWLLWTGIA
T28 sequence: T6 sequence with S18T, F27L

[29] = system: T29, PRIRTVGSGSRSASGKLTCLASYCWLFWTGIA
T29 sequence: T6 sequence with P8S, S18T

[30] = system: T30, EGRRDKLTCLASYCWLVGHGQH
T30 sequence: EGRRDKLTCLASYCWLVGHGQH

[31] = system: T31, KLTCLASYAWLF
T31 sequence: KLTCLASYAWLF

[32] = system: T32, RRAPGKLTCLASYAWCFWTGIA-COOH
T32 sequence: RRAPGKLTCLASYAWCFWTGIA

[33] = system: T33, PEG4-RRAPGKLTCLASYCWLFWTGIA
T33 sequence: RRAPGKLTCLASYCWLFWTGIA

[34] = system: T34, QRAGRVARLH RRAPN KLTCLASYCWLFWTGIA
T34 sequence: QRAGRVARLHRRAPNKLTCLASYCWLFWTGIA

[35] = system: T35, RRAAGKLQCLASYCWLFWTGIA
T35 sequence: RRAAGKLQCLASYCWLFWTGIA

[36] = system: T36, PRIRTVGPGSRSASGKLTCLASYCWLFWSGIA
T36 sequence: T6 sequence with S18T, T29S

[37] = system: T37, Biotin-PEG2-LYTAWIKCQFARLPGCALSGRW
T37 sequence: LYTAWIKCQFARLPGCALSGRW

[38] = system: T38, compound 2
T38 sequence: KLTCLASYCWLF

[39] = system: T39, PSIRTVGPGSRSASGKLTCLASYCWLFWTGIA
T39 sequence: T6 sequence with R2S, S18T

[40] = system: T40, RRAPGKLTCLASYCK(PEG2-Biotin)LFWTGIA
T40 sequence: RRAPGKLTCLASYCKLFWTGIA

[41] = system: T41, PRIRSVGPGSRSASGKLTCLASYCWLFWTGIA
T41 sequence: T6 sequence with T5S, S18T

[42] = system: T42, rRAAGKLTCLASYCWLFATGIA
T42 sequence: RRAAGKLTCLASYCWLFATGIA

[43] = system: T43, SKQGRPISPDrRAAGKLTCLAS-NMeTyr-CWLFWTGIA
T43 sequence: T4 sequence with A3Q

[44] = system: T44, RRAPGKK(PEG2-Biotin)TCLASYCWLFWTGIA
T44 sequence: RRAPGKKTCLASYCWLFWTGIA

[45] = system: T45, SKQGRPISPDrRAAGKLTCLASYCWLFWTG
T45 sequence: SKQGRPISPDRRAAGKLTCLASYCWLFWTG

[46] = system: T46, RRAPGKLTCLASYCWL-MePhe-WTGIA
T46 sequence: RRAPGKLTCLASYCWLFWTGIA

human Factor IXa
Vmax, FXa generation assay [1]: > 0.5 | Vmax, FXa generation assay [2]: > 2 | KM (nM) of hFIXa for FX [3]: 11 nM | Vmax, FXa generation assay with hFIXa [3]: > 2 | kcat (min^-1) of hFIXa for FX, compound at 1 µM [3]: 0.0171 min⁻¹ | Δ KM (Km compound/Km buffer) [3]: 0.14 | Vmax, FXa generation assay [4]: > 2 | Vmax, FXa generation assay; (++) means 1-2 [5]: (++) | Vmax, FXa generation assay [6]: > 3 | Vmax, FXa generation assay [7]: > 3 | Vmax, FXa generation assay; (++) means 1-2 [8]: (++) | Vmax, FXa generation assay [9]: > 2 | Vmax, FXa generation assay [10]: > 2 | Vmax, FXa generation assay [11]: > 3 | Vmax, FXa generation assay; (++) means 1-2 [12]: (++) | Vmax, FXa generation assay [13]: > 2 | Vmax, FXa generation assay; (++) means 1-2 [14]: (++) | Vmax, FXa generation assay; (++) means 1-2 [15]: (++) | Vmax, FXa generation assay; (++) means 1-2 [16]: (++) | Vmax, FXa generation assay [17]: > 2 | Vmax, FXa generation assay; (++) means 1-2 [18]: (++) | Vmax, FXa generation assay [19]: > 3 | Vmax, FXa generation assay [20]: > 2 | Vmax, FXa generation assay [21]: > 1.8 | Vmax, FXa generation assay [22]: > 2 | Vmax, FXa generation assay; (++) means 1-2 [23]: (++) | Vmax, FXa generation assay; (++) means 1-2 [24]: (++) | (kcat/KM)app (M^-1s^-1) of FIXa on the chromogenic substrate, compound 1 at 10 µM [25]: 1360 M⁻¹ s⁻¹ | Vmax (mOD/min min), with phospholipids [25]: 3.98 mOD/min min | Vmax (mOD/min min), without phospholipids [25]: 2.6 mOD/min min | Vmax, FXa generation assay with hFIXa [25]: > 2 | kcat (min^-1) of hFIXa for FX, compound at 3 µM [25]: 0.0144 min⁻¹ | Δ KM (Km compound/Km buffer) [25]: 0.31 | Vmax, FXa generation assay; (++) means 1-2 [26]: (++) | Vmax, FXa generation assay with hFIXa [27]: > 3 | Vmax, FXa generation assay [28]: > 3 | Vmax, FXa generation assay [29]: > 3 | Vmax, FXa generation assay [30]: > 0.3 | Vmax, FXa generation assay; (++) means 1-2 [31]: (++) | Vmax, FXa generation assay [32]: > 2 | Vmax, FXa generation assay [33]: > 3 | Vmax, FXa generation assay [34]: > 2 | Vmax, FXa generation assay [35]: > 2 | Vmax, FXa generation assay [36]: > 3 | Vmax, FXa generation assay [37]: > 1.5 | Vmax (mOD/min min), with phospholipids [38]: 4.22 mOD/min min | Vmax (mOD/min min), without phospholipids [38]: 3.05 mOD/min min | Vmax, FXa generation assay [38]: > 3 | Vmax, FXa generation assay with hFIXa [38]: > 3 | Vmax, FXa generation assay [39]: > 3 | Vmax, FXa generation assay; (++) means 1-2 [40]: (++) | Vmax, FXa generation assay [41]: > 3 | Vmax, FXa generation assay; (++) means 1-2 [42]: (++) | Vmax, FXa generation assay [43]: > 0.3 | Vmax, FXa generation assay [44]: > 2 | Vmax, FXa generation assay [45]: > 2 | Vmax, FXa generation assay [46]: > 2

— patent publication US20140303084
